This passage reports Kd results from doi:10.1101/2025.08.05.667158, “Antagonistic insulin mimetics lock the insulin receptor in an alternative apo-state” (bioRxiv, 2025).

The term Kd denotes the constant that tells how readily two partners part at equilibrium. Read a low Kd as higher affinity.

Positions of bridges follow the written chain, without caps; N, C: chain ends. Chains are numbered I, II in the order given. No end group written: not given here. adamantane scaffold = adamantane core scaffold to which the peptide C-termini are attached

This experiment concerns the target T1, IR-A in cell membranes of human IM-9 lymphocytes (human (endogenous in IM-9), UniProt P06213-2 28-1370).
T1 construct: human insulin receptor, isoform A (IR-A); Heterotetramer (alpha alpha' beta beta') of two protomers, each cut into an alpha and a beta subunit; written as one chain for the protomer; In the functional rows this molecule stands for human IR-A stably transfected in mouse embryonic fibroblasts; also called insulin receptor; source: endogenous, cell membranes of human IM-9 lymphocytes (ATCC)
Briefly: radioligand binding; competition with [125I]-monoiodotyrosyl-TyrA14-insulin for IR-A in cell membranes of human IM-9 lymphocytes; each curve in duplicate, Kd from at least three curves; non-linear regression for one site binding with ligand depletion. The settings on record: one partner purified.

T1 sequence (P06213 other isoform, or with tags, fused parts or gaps): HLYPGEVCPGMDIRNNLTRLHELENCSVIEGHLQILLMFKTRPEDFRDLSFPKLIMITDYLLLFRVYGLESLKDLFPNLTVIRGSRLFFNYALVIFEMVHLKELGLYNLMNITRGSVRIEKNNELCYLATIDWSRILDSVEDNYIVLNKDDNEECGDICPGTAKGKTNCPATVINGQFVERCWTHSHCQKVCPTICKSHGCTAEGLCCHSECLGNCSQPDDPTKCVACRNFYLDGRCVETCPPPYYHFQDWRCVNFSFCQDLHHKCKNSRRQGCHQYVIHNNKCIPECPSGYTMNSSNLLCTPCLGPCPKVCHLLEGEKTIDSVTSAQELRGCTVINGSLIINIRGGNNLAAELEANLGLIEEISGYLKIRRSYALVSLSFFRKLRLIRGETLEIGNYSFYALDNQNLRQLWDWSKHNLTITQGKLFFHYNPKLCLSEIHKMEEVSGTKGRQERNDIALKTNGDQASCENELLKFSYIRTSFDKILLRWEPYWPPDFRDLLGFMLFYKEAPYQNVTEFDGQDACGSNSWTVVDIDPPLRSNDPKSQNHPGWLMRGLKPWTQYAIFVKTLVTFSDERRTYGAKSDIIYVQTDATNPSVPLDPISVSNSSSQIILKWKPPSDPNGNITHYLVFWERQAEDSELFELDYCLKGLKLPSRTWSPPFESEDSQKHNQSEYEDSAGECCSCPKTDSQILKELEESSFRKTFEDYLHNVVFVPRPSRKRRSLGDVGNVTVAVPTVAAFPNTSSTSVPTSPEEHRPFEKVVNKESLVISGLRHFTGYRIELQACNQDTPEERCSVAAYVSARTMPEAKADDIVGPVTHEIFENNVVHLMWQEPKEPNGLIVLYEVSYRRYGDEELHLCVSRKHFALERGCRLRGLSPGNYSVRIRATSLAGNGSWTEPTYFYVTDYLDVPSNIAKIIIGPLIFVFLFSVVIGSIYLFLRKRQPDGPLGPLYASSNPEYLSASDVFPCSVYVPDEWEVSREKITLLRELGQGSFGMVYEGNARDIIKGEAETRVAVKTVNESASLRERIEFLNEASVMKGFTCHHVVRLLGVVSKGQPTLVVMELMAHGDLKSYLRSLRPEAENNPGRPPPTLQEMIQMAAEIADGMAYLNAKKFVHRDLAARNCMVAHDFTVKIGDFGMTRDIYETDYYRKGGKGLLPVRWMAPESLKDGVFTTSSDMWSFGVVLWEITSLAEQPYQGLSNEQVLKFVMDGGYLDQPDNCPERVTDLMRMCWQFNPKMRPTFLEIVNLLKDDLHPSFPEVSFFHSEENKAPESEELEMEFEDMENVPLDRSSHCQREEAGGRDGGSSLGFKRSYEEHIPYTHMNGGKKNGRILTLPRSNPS

B1: Ada insulin mimetic (designed binder)
peptide 1: Ac-FYDWFERQ
peptide 2: SLEEEWAQ
modifications: linker I:C-II:C via adamantane scaffold; not fully specified (C-terminus); also: mixture of two diastereoisomers
notes: minimal Site-1 peptide, derived from the phage display peptides S597 and S661; minimal Site-2 peptide, derived from the phage display peptides S597 and S661; Two peptides joined through their C-termini by an adamantane scaffold; Ada is an inseparable mixture of two diastereoisomers; only one fits the cryo-EM density; also called antagonist; source: synthetic (solid-phase peptide synthesis)
In turn, B1 registered a Kd of 395 nM.

B2: Trim insulin mimetic (designed binder)
peptide 1: Ac-FYDWFERQ
peptide 2: SLEEEWAQ
modifications: linker I:C-II:C via trimesic acid scaffold; not fully specified (C-terminus); also: linker at chain A 8 at chain B 8 to a chain's C-terminus via trimesic acid scaffold
notes: minimal Site-1 peptide, derived from the phage display peptides S597 and S661; minimal Site-2 peptide, derived from the phage display peptides S597 and S661; Two peptides joined through their C-termini by a trimesic acid scaffold; also called antagonist; source: synthetic (solid-phase peptide synthesis)
B2: the Kd was 1260 nM.
